Four substances from patent US20040038398A1 can be followed below.

The target of assay [1] is CD2 antigen on human peripheral blood CD14+ myeloid cells / primary dendritic cells (and CD3+ T cells) (human) (UniProt P06729). The assay can be described thus: cell-based or functional assay.
For assay [2] the target is unchanged. The assay can be described thus: flow cytometry, staining of enriched human CD14+ myeloid cells.
For assay [3] the target is unchanged. The assay can be described thus: flow cytometry, anti-T113 staining after 30 min pre-incubation with anti-T112, 4 C, Mg++/Ca++-free medium. For orientation: In flow cytometry, cells or beads pass a laser one at a time.

Sequence of UniProt P06729 (P06729 25-351): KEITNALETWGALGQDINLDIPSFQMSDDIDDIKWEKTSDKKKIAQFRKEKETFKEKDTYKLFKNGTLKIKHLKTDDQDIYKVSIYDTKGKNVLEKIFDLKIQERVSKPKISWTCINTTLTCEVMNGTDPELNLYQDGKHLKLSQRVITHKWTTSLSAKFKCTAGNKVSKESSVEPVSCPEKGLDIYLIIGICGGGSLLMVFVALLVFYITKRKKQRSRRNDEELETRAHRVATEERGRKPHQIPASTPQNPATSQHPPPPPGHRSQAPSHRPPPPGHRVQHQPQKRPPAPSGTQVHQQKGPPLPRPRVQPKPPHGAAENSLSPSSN

With “CD58 expressed on transfected CHO cells (CHO-58) (from UniProt P19256 29-250) (ligand)”, in assay [1], the IL-1β in DC/CHO-58 cocultures compared with DC/CHO-NEO was 2 fold, the IL-12 in DC/CHO-58 cocultures compared with DC/CHO-NEO was 26 fold and the level of HLA-DR on primary dendritic cells cocultured with CHO-58 is more than 2.5 fold.

In assay [1], anti-T111 monoclonal antibody had an IL-1β release, monocyte-derived dendritic cells against primary dendritic cells of 75 fold; an IL-12 release, monocyte-derived dendritic cells against primary dendritic cells of 100 fold; an allogeneic naive CD4 T cell proliferation induced by antibody-pulsed primary dendritic cells ([3H]thymidine) of 2.5 fold. In addition, the percent of CD14+ Mx on which CD2 was identified in assay [2] came to 30%.

In assay [2], anti-T112 monoclonal antibody registered a percent of CD14+ Mx on which CD2 was identified of 37%.

Take anti-T113 monoclonal antibody: in assay [1], the CD50 MFI of primary dendritic cells, after CD2 engagement was 90 MFI; the CD50 MFI of primary dendritic cells, control is 148 MFI; the HLA-DQ level on primary dendritic cells (anti-T113 added to anti-T112-enriched cells) is 9 fold; the HLA-DR level on primary dendritic cells (anti-T113 added to anti-T112-enriched cells) was 2 fold. In assay [1], the MFI of CD50^hi (so in the source) primary dendritic cells turned out to be 53%; the [Ca++]i in CD3+ T cells above baseline (anti-T112 and anti-T113 cross-linked with goat anti-mouse IgG) came out at 180%; the high expressing CD86 population of primary dendritic cells (anti-T112/3 pair) was 65%; the increase in [Ca++]i in CD14+ Mx (anti-T113 added after anti-T112) was found to be 69%. In assay [1], the increase in [Ca++]i in CD14+ Mx above baseline (anti-T112 and anti-T113 cross-linked with goat anti-mouse IgG) worked out at 95%; the level of CD40 on primary dendritic cells (anti-T112/3 pair) is 2 fold; the level of CD54 on primary dendritic cells (baseline 14%) stood at 9 fold; the level of CD80 on primary dendritic cells (anti-T112/3 pair) came to 3 fold. Besides, in assay [1], the levels of HLA-DR and HLA-DQ on primary dendritic cells (anti-T112/3 pair against control) was in the range of 2 to 3 fold; the percent CD50^hi of primary dendritic cells, after CD2 engagement was 76%; the percent CD50^hi of primary dendritic cells, control was found to be 96%; the percentage of CD50^hi (so in the source) of primary dendritic cells stood at 21%. The percent of CD14+ Mx that were CD2+ in assay [3] worked out at 20%.
